{
  "source": "paper PMC7480041",
  "about": "(bioRxiv, 2020)",
  "binders": {"B1": {"name": "mBG21 (antibody, V domains shown)", "VH": "QIQLVQSGPELKKPGETVKISCKASGYTFTDYSMHWVKQAPGKGSKWMGWINTETGEPTYADDFKGRFAFSLETSASTAYLQINNLKNEDTATYFCALRRWGQGTLVTVSS", "VL": "IVMTQTPKFLLVSAGDRVTITCKASQSVSNDVAWFQQKPGQSPKKLLIYFASNRYTGVPDRFTGSGYGTDFTFTITTVQAEDLAVYFCQQDYSSPWTFGGGTKLEIK"}},
  "target": "truncated recombinant SARS-CoV-2 nucleocapsid (N) protein, AA133–419 (SARS-CoV-2 (isolate USA-WA1/2020), UniProt P0DTC9)",
  "experiment": "ELISA",
  "data": [
    {"binder": "B1", "values": [
      {"measurement": "corrected average ELISA signal", "value": 1.43}
    ]}
  ]
}
